# Tests used:
# [1] = test system: Human Microvascular Endothelial Cells; test: Endothelial cell migration, inverted modified Boyden chamber; assay type: cell-based
# Protocol: In an alternative in vitro assay for angiogenic activity, an assay for endothelial cell migration was developed. […] Primary Human Microvascular Endothelial Cells (HMVEC PO51, Clonetics, San Diego, Calif.) were maintained in DME with 10% donor calf serum (Flow Laboratories, McLean, Va.) and 100 μg/ml endothelial celi mitogen (Biomedical Technologies Inc., Stoughton, Mass.). The cells were used between passages 10 and 15. To measure migration, cells were starved for 24 hours in DME containing 0.1% BSA, harvested, resuspended in DME with 0.1% BSA, and plated at 1.75×10^4 cells/well on the lower surface of a gelatinized 0.5 μm filter (Nucleopore Corporation, Pleasanton. Calif.) in an inverted modified Boyden chamber. After 1-2 hours at 37° C., during which time the cells were allowed to adhere to the filter, the chamber was reverted to its normal position. To the top well of separate chambers, basic Fibroblast Growth Factor (a positive control), Cyr61, or a negative control solution (conditioned medium known to lack chemoattractants or DME plus BSA, see below) was added at concentrations ranging from 10 ng/ml to 10 μg/ml. Chambers were then incubated for 3-4 hours at 37° C. to allow migration. Chambers were disassembled, membranes fixed and stained, and the number of cells that had migrated to the top of the filter in 3 high-powered fields was determined. Tolsma et al., J. Cell. Biol. 122:497-511 (1993) (incorporated by reference), and references cited therein. DME with 0.1% BSA was used as a negative control and either bFGF (10 ng/ml) or conditioned media from angiogenic hamster cell lines (20 μg/ml total protein) were used as positive controls. Rastinejad et al., Cell 56:345-355 (1989). Each sample was tested in quadruplicate (test compound such as Cyr61, positive control, conditioned medium as a negative control, and DME plus BSA as a negative control) in a single experiment; experiments were repeated at least twice.
# To allow comparison of experiments performed on different days, migration data is reported as the percent of maximum migration towards the positive control, calculated after subtraction of background migration observed in the presence of DME plus BSA. […] Very high concentrations of thrombospondin (TSP) caused endothelial cells to detach from the membrane. Detachment was detected by counting cells on the lower face of the membrane. When cell loss exceeded 10%, the number of migrated cells was corrected for this loss. […] At 10 ng/ml, Cyr61 induced an average of 64 cells to migrate per three high-powered fields examined.
# [2] = target: T1, αVβ3 integrin (Homo sapiens, UniProt P05106+P06756); test: Integrin binding assay (ligand-receptor ELISA); conditions: 1 μg/ml Cyr61 or 0.1 μg/ml vitronectin
# T1 construct: αVβ3 integrin purification from HUVE cell lysates was done as described in Pytela et al; endogenous in cells; host or cells: HUVE cells
# Protocol: αVβ3 integrin purification from HUVE cell lysates was done as described in Pytela et al., Meth. Enzynmol., 144:475-489 (1987). Briefly, 10^8 cells were lysed in 1 ml of PBS containing 1 mM CaCl2, 1 mM MgCl2, 0.5 mM PMSF and 100 mM octylglucoside. […] The purity of the integrin was determined by SDS-PAGE under non-reducing conditions, followed by silver staining.
# The integrin binding assay was developed in accordance with the disclosures in Brooks et al., Cell 85:683-693 (1996), and Lam, S. C-T (1992). […] Bound proteins were detected by specific polyclonal antisera (anti-Cyr61 antiserum was diluted 1:500 and anti-vitronectin antiserum was diluted 1:1000 in PBS containing 1 mM CaCl2, 1 mM MgCl2, and 5 mg/ml BSA) followed by a secondary antibody-horseradish peroxidase conjugate (1:20000 in the same buffer). […] Horseradish peroxidase (HRP) was detected with an HRP immunoassay kit (Bio-Rad Laboratories). The colorimetric reaction was developed for 15-30 minutes at room temperature, stopped by the addition of H2SO4, and the absorbance at 450 nm was measured. […]
# T1 sequence (P06756 31-889 limits assumed): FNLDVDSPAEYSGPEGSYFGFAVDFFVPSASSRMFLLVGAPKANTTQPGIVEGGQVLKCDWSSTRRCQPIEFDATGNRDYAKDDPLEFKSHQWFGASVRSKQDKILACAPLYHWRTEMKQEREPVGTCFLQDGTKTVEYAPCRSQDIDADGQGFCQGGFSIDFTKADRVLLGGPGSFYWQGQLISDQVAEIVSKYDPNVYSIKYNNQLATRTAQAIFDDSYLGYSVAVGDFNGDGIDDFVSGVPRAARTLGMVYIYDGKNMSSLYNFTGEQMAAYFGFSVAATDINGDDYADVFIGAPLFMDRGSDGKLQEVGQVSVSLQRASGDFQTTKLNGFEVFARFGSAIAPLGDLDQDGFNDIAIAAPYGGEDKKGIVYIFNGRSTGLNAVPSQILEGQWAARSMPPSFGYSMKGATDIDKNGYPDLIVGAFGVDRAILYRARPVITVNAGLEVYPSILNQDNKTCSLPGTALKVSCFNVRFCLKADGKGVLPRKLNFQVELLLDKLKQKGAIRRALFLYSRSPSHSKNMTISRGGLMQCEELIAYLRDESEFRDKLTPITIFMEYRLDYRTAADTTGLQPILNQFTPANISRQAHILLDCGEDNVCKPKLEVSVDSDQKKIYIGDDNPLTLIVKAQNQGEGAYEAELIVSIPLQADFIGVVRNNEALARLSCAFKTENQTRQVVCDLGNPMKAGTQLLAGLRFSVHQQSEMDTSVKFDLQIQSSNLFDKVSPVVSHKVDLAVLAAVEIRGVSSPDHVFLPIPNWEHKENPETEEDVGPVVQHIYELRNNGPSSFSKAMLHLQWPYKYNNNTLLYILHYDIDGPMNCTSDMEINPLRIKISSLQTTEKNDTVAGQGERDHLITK
# T1 sequence (P06756 891-1048 partner limits assumed): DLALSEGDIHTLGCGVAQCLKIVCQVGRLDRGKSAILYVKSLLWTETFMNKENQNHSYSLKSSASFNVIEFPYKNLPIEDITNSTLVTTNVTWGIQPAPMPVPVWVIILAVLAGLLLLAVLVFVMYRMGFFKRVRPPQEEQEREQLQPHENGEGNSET
# T1 sequence (P05106 27-788): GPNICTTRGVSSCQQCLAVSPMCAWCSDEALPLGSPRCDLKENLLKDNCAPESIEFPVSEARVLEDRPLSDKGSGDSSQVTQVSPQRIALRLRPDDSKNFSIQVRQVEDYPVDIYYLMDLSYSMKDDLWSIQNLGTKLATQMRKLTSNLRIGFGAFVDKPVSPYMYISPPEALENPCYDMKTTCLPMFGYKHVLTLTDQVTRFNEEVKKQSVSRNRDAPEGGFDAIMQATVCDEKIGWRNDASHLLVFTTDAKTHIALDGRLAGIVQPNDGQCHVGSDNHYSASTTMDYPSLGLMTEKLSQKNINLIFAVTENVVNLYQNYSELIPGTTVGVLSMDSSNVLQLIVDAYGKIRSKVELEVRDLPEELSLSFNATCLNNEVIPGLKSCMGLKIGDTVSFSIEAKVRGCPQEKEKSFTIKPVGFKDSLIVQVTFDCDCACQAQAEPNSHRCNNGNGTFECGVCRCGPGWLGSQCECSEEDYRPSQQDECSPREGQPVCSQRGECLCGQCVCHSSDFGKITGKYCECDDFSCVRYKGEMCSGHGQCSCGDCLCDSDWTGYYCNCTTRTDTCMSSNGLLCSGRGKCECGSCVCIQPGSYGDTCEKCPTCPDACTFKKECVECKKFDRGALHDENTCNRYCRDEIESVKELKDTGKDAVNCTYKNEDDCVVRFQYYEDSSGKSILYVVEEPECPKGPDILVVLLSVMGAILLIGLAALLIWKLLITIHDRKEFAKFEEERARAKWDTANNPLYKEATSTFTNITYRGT
molecule,measurement,setting,value
"Cyr61: Cysteine-rich ECM signaling protein; murine sequence SEQ ID NO:2, recombinant from Baculovirus-infected Sf9 cells (protein, listed as Mus musculus) MSSSTFRTLAVAVTLLHLTRLALSTCPAACHCPLEAPKCAPGVGLVRDGCGCCKVCAKQLNEDCSKTQPCDHTKGLECNFGASSTALKGICRAQSEGRPCEYNSRIYQNGESFQPNCKHQCTCIDGAVGCIPLCPQELSLPNLGCPNPRLVKVSGQCCEEWVCDEDSIKDSLDDQDDLLGLDASEVELTRNNELIAIGKGSSLKRLPVFGTEPRVLFNPLHAHGQKCIVQTTSWSQCSKSCGTGISTRVTNDNPECRLVKETRICEVRPCGQPVYSSLKKGKKCSKTKKSPEPVRFTYAGCSSVKKYRPKYCGSCVDGRCCTPLQTRTVKMRFRCEDGEMFSKNVMMIQSCKCNYNCPHPNEASFRLYSLFNDIHKFRD",migrated cells per three high-powered fields,[1]; 10 ng/ml,64 cells
same,migrated cells per three high-powered fields,[1]; 100 ng/ml,approximately 72 cells
same,migrated cells per three high-powered fields,[1]; 1 μg/ml,87 cells
same,migrated cells per three high-powered fields,[1]; 10 μg/ml,approximately 57 cells
same,migrated cells per three high-powered fields,[1]; approximately 7 μg/ml,about 61 cells
same,binding to immobilized αVβ3 integrin,[2],bound to the immobilized integrin

# Reference: US7521540B2, “CYR61 compositions and methods” (Munin Corporation, priority 1996, dated 2009)
